Measurements reported in patent publication US20230212554A1.
pEC50: −log10 of the molar value.

Experiments:
[1] = target: NP of B/Brisbane/60/2008(fluB) (influenza B virus B/Brisbane/60/2008); experiment: ELISA on virus-infected fixed MDCK cells
[2] = target: NPB1 (influenza B virus B/Houston/B720/2004) (UniProt O36433); experiment: ELISA on recombinant NP

## ab47876 (antibody)
[1]
  pEC50: 8.69
[2]
  pEC50: 9.89
